The source of these data is patent US6987089.

The target in the data set is T1, His-CIA recombinant protein (His6-tagged mouse CIA).
T1 chain: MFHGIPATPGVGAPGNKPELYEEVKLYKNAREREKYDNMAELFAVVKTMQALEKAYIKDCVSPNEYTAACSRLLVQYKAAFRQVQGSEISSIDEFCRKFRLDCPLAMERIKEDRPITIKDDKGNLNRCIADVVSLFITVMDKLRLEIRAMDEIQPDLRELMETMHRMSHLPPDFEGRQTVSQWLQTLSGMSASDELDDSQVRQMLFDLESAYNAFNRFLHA

B1: ASK1-Flag (expressed from pcDNA3-ASK1-Flag in 293 cells, immunoprecipitated with anti-Flag) (protein)
chain: MSTEADEGITFSVPPFAPSGFCTIPEGGICRRGGAAAVGEGEEHQLPPPPPGSFWNVESAAAPGIGCPAATSSSSATRGRGSSVGGGSRRTTVAYVINEASQGQLVVAESEALQSLREACETVGATLETLHFGKLDFGETTVLDRFYNADIAVVEMSDAFRQPSLFYHLGVRESFSMANNIILYCDTNSDSLQSLKEIICQKNTMCTGNYTFVPYMITPHNKVYCCDSSFMKGLTELMQPNFELLLGPICLPLVDRFIQLLKVAQASSSQYFRESILNDIRKARNLYTGKELAAELARIRQRVDNIEVLTADIVINLLLSYRDIQDYDSIVKLVETLEKLPTFDLASHHHVKFHYAFALNRRNLPGDRAKALDIMIPMVQSEGQVASDMYCLVGRIYKDMFLDSNFTDTESRDHGASWFKKAFESEPTLQSGINYAVLLLAAGHQFESSFELRKVGVKLSSLLGKKGNLEKLQSYWEVGFFLGASVLANDHMRVIQASEKLFKLKTPAWYLKSIVETILIYKHFVKLTTEQPVAKQELVDFWMDFLVEATKTDVTVVRFPVLILEPTKIYQPSYLSINNEVEEKTISIWHVLPDDKKGIHEWNFSASSVRGVSISKFEERCCFLYVLHNSDDFQIYFCTELHCKKFFEMVNTITEEKGRSTEEGDCESDLLEYDYEYDENGDRVVLGKGTYGIVYAGRDLSNQVRIAIKEIPERDSRYSQPLHEEIALHKHLKHKNIVQYLGSFSENGFIKIFMEQVPGGSLSALLRSKWGPLKDNEQTIGFYTKQILEGLKYLHDNQIVHRDIKGDNVLINTYSGVLKISDFGTSKRLAGINPCTETFTGTLQYMAPEIIDKGPRGYGKAADIWSLGCTIIEMATGKPPFYELGEPQAAMFKVGMFKVHPEIPESMSAEAKAFILKCFEPDPDKRACANDLLVDEFLKVSSKKKKTQPKLSALSAGSNEYLRSISLPVPVLVEDTSSSSEYGSVSPDTELKVDPFSFKTRAKSCGERDVKGIRTLFLGIPDENFEDHSAPPSPEEKDSGFFMLRKDSERRATLHRILTEDQDKIVRNLMESLAQGAEEPKLKWEHITTLIASLREFVRSTDRKIIATTLSKLKLELDFDSHGISQVQVVLFGFQDAVNKVLRNHNIKPHWMFALDSIIRKAVQTAITILVPELRPHFSLASESDTADQEDLDVEDDHEEQPSNQTVRRPQAVIEDAVATSGVSTLSSTVSHDSQSAHRSLNVQLGRMKIETNRLLEELVRKEKELQALLHRAIEEKDQEIKHLKLKSQPIEIPELPVFHLNSSGTNTEDSELTDWLRVNGADEDTISRFLAEDYTLLDVLYYVTRDDLKCLRLRGGMLCTLWKAIIDFRNKQT
Take B1: the “phosphorylation of GST-MKK6 (K82A) by immunoprecipitated ASK1 (immunocomplex kinase assay)” value is given as “The presence of the HIS-CIA recombinant protein, however, lowered the kinase activity of ASK1, which had been activated by the UV irradiation, resulting in a significant decrease in the phosphorylation of GST-MKK6”.
